Laboratory results from the RNAGym collection of RNA variant scans (doi:10.7554/elife.80360).

B1: Hairpin Ribozyme (parent)
chain: GUCCUCUUUCACGUGCGCGUGAAAGAGAGAAGUGAACCAGAGAAACACACGUUGUGGUAUAUUACCUGGUA

Variants of: B1
Assay: self-cleavage, relative activity (ratio to wild type); higher = more cleavage; co-transcriptional

Variant | self-cleavage
A28G A47G | 0.198
A30G G68C | 0.132
A30G G68A | 0.0362
A28G A36C | 0.778
G29C A43U | 0.0794
A28G A71C | 1.26
A28G A71G | 0.941
A28C G29A | 0.199
A28U U52G | 0.374
G29A C38U | 0.19
A28U G54C | 0.219
A28U G54A | 0.32
A30C A47G | 0.0558
A28G A45C | 0.279
G29C A47U | 0.093
A30G G32U | 0.124
A30G G32C | 0.106
A30G G32A | 0.137
A30C C65A | 0.0386
A30C C65U | 0.12
A30G A45C | 0.267
G29A A36U | 0.278
G29A A36C | 0.0858
A30C A43C | 0.261

Variant | self-cleavage
A28C A64U | 0.237
G29A A44C | 0.17
G29A A44G | 0.113
G29C G54U | 0.162
A30C A71U | 0.104
G29C C66U | 0.135
G29C C66G | 0.137
G29C C66A | 0.182
G29A A49G | 0.138
A28G A41U | 1.05
A30C C50A | 0.0998
G29C C37A | 0.14
G29C C37G | 0.084
G29U C65G | 0.0526
A28U U63A | 0.128
A28G G42C | 0.47
A28C G68U | 0.214
A28C G68A | 0.182
A30G C37G | 0.0733
A28C C50U | 0.168
A28U C48G | 0.195
A28G G51A | 1.25
G29C U62C | 0.113
G29C A31G | 0.187

Variant | self-cleavage
G29A U60G | 0.0375
G29A U60C | 0.144
G29A U60A | 0.137
A28G C37U | 0.644
A30C C66A | 0.0863
A30G A36G | 0.0448
A30G A36C | 0
G29A A47G | 0.244
G29U C37U | 0.192
A28U C37A | 0.143
A30G G51A | 0.254
G29A U67C | 0.106
G29A U67G | 0.0868
G29A U67A | 0.0562
A30C C48G | 0.126
A28U A31C | 0.251
G29C G68C | 0.124
G29A A41C | 0.053
G29A A41G | 0.106
G29U A30C | 0.154
A28G A31C | 0.113
A30G A47U | 0.131
G29A G56U | 0.111
A28G A39U | 0.536

Variant | self-cleavage
A28G A39C | 0.748
A30C U62A | 0
A30G G56C | 0.0815
A28G G56A | 0.296
A28G G56C | 0.0641
A28G G56U | 0.165
A28G U52A | 0.814
G29C U55A | 0.164
G29U A61G | 0.223
A28C U33G | 0
A28C U33A | 0.145
A30G G34C | 0.79
A30G G34A | 0.164
A28C G57C | 0.145
A28C G57U | 0.0228
A30G A43G | 0.0977
A28G C46U | 0.137
G29C U53C | 0.252
G29C C65U | 0.135
G29C U67G | 0.12
A28C G40A | 0.131
A28C U55A | 0.155
A30G C66U | 0.1
G29C U63A | 0.217

Variant | self-cleavage
A28U G51A | 0.716
G29U A64C | 0.142
G29U U60A | 0.169
G29C | 0.133
G29U | 0.132
G29A | 0.126
A28C G56A | 0.137
A28C G56U | 0.0871
A28U A30G | 0.0577
A28U A30C | 0.167
A30G A41C | 0.201
A28C U70G | 0.322
A28C U70C | 0.426
A28U U58C | 0.58
G29U U67C | 0.101
A30G A61U | 0.153
G29C G56U | 0.0807
A28G U55G | 0.427
G29U G69U | 0.099
A30G A39C | 0.106
A30G A39G | 0.127
G29U A36U | 0.104
G29A C48U | 0.0646
G29A C48A | 0.131

Variant | self-cleavage
G29U G68A | 0.097
A30C U55G | 0.0965
A30G C48U | 0.19
A30G C48G | 0.0877
A30G C48A | 0.0555
A30G G40C | 0.131
G29C C38U | 0.145
G29C C38G | 0.122
A28U A45U | 0.224
A28U A45C | 0.0951
A30G A44U | 0.227
G29U A59C | 0.0619
A30C A44G | 0.145
A30C A44U | 0.106
A28U A47G | 0.0453
A28U A47U | 0.125
G29U A41U | 0.116
G29U A41G | 0.082
A30G G42U | 0.0793
A30C G40C | 0.0198
A30C G40U | 0.0963
A30C G40A | 0.116
G29C G57C | 0.131
A28U U60G | 0.3

Variant | self-cleavage
A28C U60C | 0.558
A28C U60G | 0.383
A30C G68A | 0.0646
G29A A59G | 0.162
G29A A59C | 0.138
A28U U55A | 0.235
A28U U33C | 0.079
A28U U33A | 0.152
A30C A41C | 0.315
G29U G51A | 0.139
G29U G51U | 0.121
A28G U33G | 0.211
G29C U70C | 0.133
G29A A45C | 0.0675
G29A A45U | 0.0463
G29A C46G | 0.0584
G29A C46U | 0.238
G29A C46A | 0.0992
G29A G34A | 0.201
G29A U63G | 0.116
G29A U63A | 0.124
A30G C46G | 0.185
G29A C66U | 0.194
